Test results as given in PMC12500691.
Values joined by “and” are separate entries in the source; they are usually repeats but may differ in a detail not shown here. Identical values can stand only once.

Experiments:
[1] = target: SARS-CoV-2 extended S1 subunit (SARS-CoV-2 (Wuhan variant)) (UniProt P0DTC2); assay: SPR
[2] = target: SARS-CoV-2 Spike_(Strep) (SARS-CoV-2 (Wuhan variant)) (UniProt P0DTC2); assay: SPR
[3] = target: SARS-CoV-2 SpikeHis (SARS-CoV-2 (Wuhan variant)) (UniProt P0DTC2); assay: SPR
[4] = target: SARS-CoV-2 Spike_(Strep) (SARS-CoV-2 (Wuhan variant)) (UniProt P0DTC2); assay: negative stain electron microscopy

human angiotensin converting enzyme 2, sequence (Q9BYF1 20-611): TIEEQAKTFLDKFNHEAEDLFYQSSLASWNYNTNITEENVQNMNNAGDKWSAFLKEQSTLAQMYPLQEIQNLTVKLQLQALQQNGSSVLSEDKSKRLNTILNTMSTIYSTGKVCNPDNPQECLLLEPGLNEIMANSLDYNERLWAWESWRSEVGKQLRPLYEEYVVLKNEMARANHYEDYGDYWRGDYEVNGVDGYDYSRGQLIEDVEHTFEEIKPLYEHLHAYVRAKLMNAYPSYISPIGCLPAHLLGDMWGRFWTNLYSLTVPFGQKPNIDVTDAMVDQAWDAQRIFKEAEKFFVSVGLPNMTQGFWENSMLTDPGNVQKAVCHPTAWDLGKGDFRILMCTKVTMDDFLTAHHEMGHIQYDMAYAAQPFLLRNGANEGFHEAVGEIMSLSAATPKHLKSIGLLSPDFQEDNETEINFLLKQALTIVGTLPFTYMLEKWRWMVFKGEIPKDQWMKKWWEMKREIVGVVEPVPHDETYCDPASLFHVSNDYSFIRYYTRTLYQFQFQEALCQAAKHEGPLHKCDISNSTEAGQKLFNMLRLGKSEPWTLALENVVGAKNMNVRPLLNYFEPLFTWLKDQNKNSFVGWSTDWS

| Substance | IC50 [1] [nM] | Kd [1] [nM] | IC50 [2] [nM] | Kd [2] [nM] | stoichiometry N [2] | Kd [3] [nM] | stoichiometry N [4] |
| --- | --- | --- | --- | --- | --- | --- | --- |
| LL-37 (peptide) | 160 | 200 | 670 | 410 | 6 | 410 | – |
| human angiotensin converting enzyme 2 (from UniProt Q9BYF1-1 20-611) (receptor) | – | 610 | – | – | – | – | – |
| gold-labeled LL-37 (peptide) | – | – | – | – | – | – | 4 and 7 |
